# Where a chain is given by its changes, count along the chain named.
# T1: cMET-Tn peptide PTKSFISGGSTITGVGKNLN, glycosylated with GalNAc on the serine and threonine residues (O-linked GalNAc on the serine at position 10 and the threonine at position 11; N-terminal biotin in the form described for Biacore and Octet)
# T1 construct: Synthetic 20-residue glycopeptide of cMET; GalNAc sites not given; also called Tn-glycosylated cMET peptide; cMET glycopeptide
# T1 peptide: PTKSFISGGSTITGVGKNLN
# B1: 16E12.1D9.1B11 (antibody, V domains shown)
# VH: QVQLQQSDAELVKPGASVKISCKASGYTFTDHAIHWVKQKPEQGLEWIGYFSPGNDDVRYSEKFKGKATLTADKSSSTAYMQLNSLTSEDSAVYFCKRSLPGDFDYWGQGTTLTVSS
# VL: DVQISQSPSYLAASPGETITINCRASKSINNYLVWYQEKPGKTIKPLIYSGSTLQTGTPSRFSGSGSGTDFSLTISSLEPEDFAMYYCQQHNEYPFTFGAGTKLELK
# notes: Mouse monoclonal antibody from a hybridoma
# B2: 14E9 (antibody, V domains shown)
# VH: QEQLVESGGGLVEPGASLTLTCKASGIDFSSYWICWVRQAPGKGLEWVGCIYTGSGGNTYYATWAKGRFTVSETSSTTVTLRMTSLTAADTATYFCARMGYSAGYIGATYITVGAFNLWGQGTLVTVSS
# VL: DVVMTQTPASVGAAVGGTVTIKCQASQSISNWLAWYQQKPGQPPKLLIYSASYLESGVPSRFSGSGSGTEFTLTISDLECADAATYYCQCTYGSSGDSGSWDFGGGTEVVVKG
# notes: Rabbit monoclonal antibody cloned from B cells of immunised New Zealand White rabbits
# B3: 39A3 (antibody, V domains shown)
# VH: QSLEEYGGDLVKPGASLTLTCTASGLDFSGIYWACWVRQAPGKGLEWIACMDNRVTYATWAKGRFTSSKTSSTTVTLQMTSLTAADTATYFCARGGYGGRGLVFNLWGQGTLVTVSS
# VL: DPVLTQTPPSVSAAVGGTVTIKCQSSQSVYNNNELSWYQQKPGQPPKLLIYDASTLASGVPSRFKGSGSGTQFTLTISGVQCDDAATYYCQGIYYIGDWYSAFGGGTEVVVKG
# notes: Rabbit monoclonal antibody cloned from B cells
# B4: 15C4.1D8.1G2 (antibody, V domains shown)
# VH: B1 VH with D56G, V58I, R59K, S61N, D103P, F104M, Y106C, T112S, L113V
# VL: NIVMTQSPKSMSMSVGERVTLSCKASENVGIYVSWYQQKPEQSPKLLIYGPSNRYTGVPDRFTGSGSATDFTLTISSVQAEDLADYHCGQSYSYPFTFGSGTKLEIK
# notes: Mouse monoclonal antibody from a hybridoma (Balb/c mice immunised with the KLH-conjugated Tn-cMET glycopeptide)
# B5: 8H3.2B9.2C7 (antibody, V domains shown)
# VH: B1 VH with K40R, D56G, V58I, R59K, S61N, G66D
# VL: DVQITQSPSYLAASPGETITINCRASKSVSEYLAWYQEKPGKTNKLLIYSGSTLHSGIPSRFSGSGSGTDFTLTITSLAPEDFAMYFCQQHNEYPFTFGAGTKLELK
# notes: Mouse monoclonal antibody from a hybridoma; also called GO-8H3
# Target: T2, MUC1-Tn
# T2 construct: Specificity control in the Biacore and Octet assays
# Test: BLI (Octet), peptide on biosensor, apparent affinity
row,Kd [nM],Binder
1,2000,B1

# Target: T1, cMET-Tn peptide PTKSFISGGSTITGVGKNLN, …
# Test: as above
row,Kd [nM],Binder
1,1.5,B2
2,52,B3
3,2.83,B4
4,7,B5
5,19.2,B1

# Target: T1, cMET-Tn peptide PTKSFISGGSTITGVGKNLN, …
# Test: SPR (Biacore), antibody immobilised, peptide as analyte
# From the text: Antibody affinity assays can be carried out using surface plasmon resonance (e.g., using a Biacore system (Cytiva)). In a surface plasmon resonance assay, one or more antibodies can be immobilized onto a biosensor and presented with an analyte (e.g., the cMET-Tn peptide Biotin-[…] (the amino acid portion of which is SEQ ID NO: 285; bold and underlined residues indicate GalNAc glycosylation sites) or a negative control analyte such as an unglycosylated cMET peptide (Biotin-[…] (the amino acid portion of which is SEQ ID NO:286)). The antibodies are contacted with different concentrations of the analyte, for example concentrations of 2.5 nM, 7.4 nM, 22 nM, 66 nM and 200 nM. Affininty is measured using multi-cycle kinetics in triplicate for each analyte concentration, with 1 min association and 5 min dissociation. […] The affinity is determined by fitting the binding curve to a specific model: kinetic fit (1:1 model) or if applicable heterogenous ligand binding model. The error (>95% confidence) was calculated by how close the generated curve matches the model.
row,Kd [nM],Binder
1,7,B4
2,6.26,B5
3,1.43,B1
